According to paper PMC2874008, “Agrin Binds BMP2, BMP4 and TGFβ1” (PLoS ONE, 2010):

B1: Mature human BMP4 (ligand, UniProt P12644 293-408, looked up)
chain: SPKHHSQRARKKNKNCRRHSLYVDFSDVGWNDWIVAPPGYQAFYCHGDCPFPLADHLNSTNHAIVQTLVNSVNSSIPKACCVPTELSAISMLYLDEYDKVVLKNYQEMVVEGCGCR
notes: bone morphogenetic protein 4, human, mature growth factor; source: bought: R&D Systems
B2: N-terminal part of rat agrin (Agrin-Nterm) (domain or fragment)
chain: RSDVCRGMLCGFGAVCEPSVEDPGRASCVCKKNACPATVAPVCGSDASTYSNECELQRAQCNQQRRIRLLRQGPCGSRDPCANVTCSFGSTCVPSADGQTASCLCPTTCFGAPDGTVCGSDGVDYPSECQLLSHACASQEHIFKKFNGPCDPCQGSMSDLNHICRVNPRTRHPEMLLRPENCPAQHTPICGDDGVTYENDCVMSRIGATRGLLLQKVRSGQCQTRDQCPETCQFNSVCLSRRGRPHCSCDRVTCDGSYRPVCAQDGHTYNNDCWRQQAECRQQRAIPPKHQGPCDQTPSPCHGVQCAFGAVCTVKNGKAECECQRVCSGIYDPVCGSDGVTYGSVCELESMACTLGREIQVARRGPCDPCGQCRFGSLCEVETGRCVCPSECVESAQPVCGSDGHTYASECELHVHACTHQISLYVASAGHCQTCGEKVCTFGAVCSAGQCVCPRCEHPPPGPVCGSDGVTYLSACELREAACQQQVQIEEAHAGPCEPAECGSGGSGSGEDDECEQELCRQRGGIWDEDSEDGPCVCDFSCQSVPRSPVCGSDGVTYGTECDLKKARCESQQELYVAAQGACRGPTLAPLLPVAFPHCAQTPYGCCQDNFTAAQGVGLAGCPSTCHCNPHGSYSGTCDPATGQCSCRPGVGGLRCDRCEPGFWNFRGIVTDGHSGCTPCSCDPRGAVRDDCEQMTGLCSCRPGVAGPKCGQCPDGQVLGHLGCEADPMTPVTCVEIHCEFGASCVEKAGFAQCICPTLTCPEANSTKVCGSDGVTYGNECQLKAIACRQRLDISTQSLGPCQ
modifications: glycosylation at multiple sites (proteoglycan smear on SDS-PAGE)
notes: not agrin residues; rat agrin, residues Asp65-Gln865, amplified from rat agrin cDNA NM_175754.1; numbers count on: the protein encoded by NM_175754.1; Calculated molecular mass of the recombinant protein 88,054 Da
B3: Mature human BMP2 (ligand, UniProt P12643 283-396, looked up)
chain: QAKHKQRKRLKSSCKRHPLYVDFSDVGWNDWIVAPPGYHAFYCHGECPFPLADHLNSTNHAIVQTLVNSVNSKIPKACCVPTELSAISMLYLDENEKVVLKNYQDMVVEGCGCR
notes: bone morphogenetic protein 2, human, mature growth factor; source: bought: R&D Systems

Tests used:
[1] = biological target: B2; assay: SPR; BIAcore X; BMP2, BMP4 or TGFβ1 immobilised on CM5 chips by amine coupling, Agrin-Nterm injected at 20 µl/min; 20 mM HEPES, 150 mM NaCl, 5 mM EDTA, 0.005% Tween 20, pH 7.5; global fit, 1:1 Langmuir model; conditions: both partners purified
[2] = biological target: Mature human TGFβ1 (human); assay: as above
[3] = biological target: B1; assay: SPR; solution-competition: constant concentration of growth factor (40 nM BMP2, 40 nM BMP4 or 4 nM TGFβ1) preincubated 30 min at room temperature with increasing Agrin-Nterm, injected over immobilised ECD of the receptor (BMPR1A or TGF-βsRII) on CM5; 20 mM HEPES, 150 mM NaCl, 5 mM EDTA, 0.005% Tween 20, pH 7.5; 50% decrease in kobs by the method of Nieba et al.; conditions: both partners purified
[4] = biological target: B3; assay: as above; conditions: both partners purified
[5] = biological target: Mature human TGFβ1 (human); assay: as above

Chain of Mature human TGFβ1 (human) (P01137 279-390): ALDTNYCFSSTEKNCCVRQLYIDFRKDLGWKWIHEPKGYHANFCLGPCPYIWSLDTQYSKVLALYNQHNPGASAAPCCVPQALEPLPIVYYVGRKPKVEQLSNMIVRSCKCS

Kd [1] [nM]	koff [1] [s⁻¹]	kon [1] [M⁻¹ s⁻¹]	Kd [2] [nM]	koff [2] [s⁻¹]	kon [2] [M⁻¹ s⁻¹]	IC50 [3] [nM]	IC50 [4] [nM]	IC50 [5] [nM]	Binder
257	0.000412	1610	–	–	–	–	–	–	B1
–	–	–	51.5	0.000172	3340	345	12	2000	B2
262	0.000286	1090	–	–	–	–	–	–	B3
